Target: Rvs167 (1-265)/161 heterodimer (S. cerevisiae, UniProt P39743 1-265; P25343 1-265)
Experiment: liposome flotation

B1: GST-Cmd1 (natural protein)
chain: not shown
stoichiometry N: ~0.25 calmodulin per heterodimer

Reference: paper PMC4855880 (Developmental cell, 2016)
